This note sets out measurements from publication PMC6440019, “The WRKY transcription factor GhWRKY27 coordinates the senescence regulatory pathway in upland cotton (Gossypium hirsutum L.)”.

Conditions in all cases: protein: recombinant; tags: 6xHis (pET-28a(+))
Data set [1] has as its target T1, GhWRKY27 (Gossypium hirsutum (CCRI74), UniProt A0A068LI73 1-355). Description: EMSA; self-competition; supershift with anti-GhWRKY27; LightShift Chemiluminescent EMSA Kit (Thermo), manufacturer's instructions; buffer, salt, pH and temperature not stated.
Data set [2] concerns the target T1, GhWRKY27. As to the kind of experiment: EMSA; self-competition abolishes band; supershift with anti-GhWRKY27; LightShift Chemiluminescent EMSA Kit (Thermo), manufacturer's instructions; buffer, salt, pH and temperature not stated.
The target of data set [3] is T1, GhWRKY27. Description: competition; excess unlabelled mutant vs labelled N1; LightShift Chemiluminescent EMSA Kit (Thermo), manufacturer's instructions; buffer, salt, pH and temperature not stated.

T1 sequence (A0A068LI73 entry or part of it): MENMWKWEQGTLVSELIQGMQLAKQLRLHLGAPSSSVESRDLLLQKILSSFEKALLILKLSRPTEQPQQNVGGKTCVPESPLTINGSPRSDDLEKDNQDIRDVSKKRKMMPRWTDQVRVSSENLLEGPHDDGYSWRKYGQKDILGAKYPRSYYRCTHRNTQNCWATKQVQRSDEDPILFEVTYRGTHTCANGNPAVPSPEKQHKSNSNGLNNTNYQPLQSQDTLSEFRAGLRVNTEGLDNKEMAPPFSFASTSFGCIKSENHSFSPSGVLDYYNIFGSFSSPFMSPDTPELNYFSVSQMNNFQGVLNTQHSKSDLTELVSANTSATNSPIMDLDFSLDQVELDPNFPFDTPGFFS

B1: GhRipen2-2 wild probe (dsDNA)
DNA 1: CTGGGCTCAGGTCAGAAAAGCTTTACTCGGGGCTTGACTCGTTTTCTAA
DNA 2: TTAGAAAACGAGTCAAGCCCCGAGTAAAGCTTTTCTGACCTGAGCCCAG
On to B1, for which the binding result in the data set with GhWRKY27 [1] is on record as “binds”.

B2: GhCYP94C1 wild probe (dsDNA)
DNA 1: CCAGCTCCTCGCGAAAAGAAAAATGACTAAAAAAATATTTAATTCTTAGT
DNA 2: ACTAAGAATTAAATATTTTTTTAGTCATTTTTCTTTTCGCGAGGAGCTGG
With B2, the binding result with GhWRKY27 [2] was “binds”.

B3: GhCYP94C1 mutant probe (dsDNA)
DNA 1: CCAGCTCCTCGCGAAAAGAAAAATGAAAAAAAAAATATTTAATTCTTAGT
DNA 2: ACTAAGAATTAAATATTTTTTTTTTCATTTTTCTTTTCGCGAGGAGCTGG
For B3, in the data set with GhWRKY27 [3], the binding result is “no binding”.
